# Test results as given in patent US20120101255A1 (published 2012).
# B1: RXP-E (peptide)
# peptide: SDDLRSPQLHNGGGSAVPFYSHSHMVRRKPRNPR
# B2: RXP4 (peptide)
# peptide: RRPPYRVPPKLF
# notes: Synthetic 12-mer from the non-biased phage display screen
# Experiments:
# [1] = biological target: Cx43 expressed in N2a (neuroblastoma) cells; assay: cell-based or functional assay
# [2] = biological target: T1, Recombinant Cx43CT (carboxyl terminal domain of rat connexin43, residues 255-382, preceded by GPLG) (rat, UniProt P08050 255-382); assay: SPR, Cx43CT immobilised, peptide 250 µM and higher
# T1 construct: range 255-382; Made as a GST fusion in E. coli and cleaved from GST; 15N-labelled for NMR; also called recombinant CT; carboxyl terminal domain of Cx43
# Experimental: II: Applications to Biological Systems,” Biochim. Biophys. Acta 1331(2):131-152 (1997), which is hereby incorporated by reference in its entirety). Specific peptides were presented and, when feasible, dissociation constants (KD) were calculated from the time course of binding and unbinding of the ligand, using a 1:1 (Langmuir) association and dissociation kinetic model (Biacore software package). In both phases (association and dissociation), the first 5-8 seconds of recording were not included in the fit, to avoid artifacts resulting from peptide distribution within the flow cells (Lang et al., “Surface Plasmon Resonance as a Method to Study the Kinetics and Amplitude of Protein-protein Binding,” in PRACTICAL METHODS IN CARDIOVASCULAR […] 936-947 (Stefan Dhein, Friedrich Wilhelm Mohr & Mario Delmar eds., 2005), which is hereby incorporated by reference in its entirety).
# Phage display allows for the rapid screening of thousands of peptides, but the characteristics of binding cannot be properly defined. Furthermore, the peptides are part of a capsid protein, which may affect the ability of the peptide to properly interact with the target protein. […] Higher concentrations of the peptide were tested but an asymptotic maximum response could not be detected.
# T1 sequence (P08050 other isoform, or with tags, fused parts or gaps limits assumed): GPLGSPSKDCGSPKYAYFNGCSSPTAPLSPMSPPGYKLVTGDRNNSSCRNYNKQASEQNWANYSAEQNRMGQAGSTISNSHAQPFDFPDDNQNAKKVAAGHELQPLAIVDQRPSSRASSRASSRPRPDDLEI
binder,measurement,setting,value
B1,"junctional conductance (Gj) relative to control during octanol superfusion, RXP-E 0.1 mM in the pipette",[1],57.6 % of control
same,"junctional conductance (Gj) relative to control with pipette solution at pH 6.2, RXP-E in the pipette",[1],57 % of control
B2,binding result,[2],binds
